In the DeepSol protein solubility set:

Assay: soluble on expression in E. coli; label from the status in PepcDB or PDB records

Sequence | soluble on expression in E. coli
MSDKRRYFGTDGVRGKVGQYPITPDFVLKLGWAAGRVLAKQGTRKVIIGKDTRISGYMLESALEAGLAAAGLKATFTGPMPTPAVAYLTQTFRAEAGIVISASHNPYYDNGIKFFSYEGTKLPDDIELAIEAELDKDIECVESAELGKASRMVDAAGRYIEFCKSTFPSKLSLSGLKLVVDCANGATYHIAPNVFRELGAEVIAMGVEPNGLNINDQVGATDVRALQKRVVEEHAHLGLAFDGDGDRIIMVDHLGNKVDGDQIAYIIARDALRRGELKGGVVGTLMTNLGMENGLKQLGIPFVRAAVGDRYVMEKLLEKGWKIGAENSGHVILLDKVTTGDAIVAGLQVLASVVGSEMTLHELAKGMTLYPQVLENVRFAGDNNPLEADAVKAAVSEVEAELGSKGRVLLRKSGTEPLIRVMVEGEDETLVKQSALKIAQAVKDNC | not soluble
MDRKIREQIIAIYSNLQHKQDLTQFAHCLTTKADDNCEDFFNLGLQFQNNQLTALGFNGEGCIISTIASELTLSALEGKTIKEAIVLLEQFMEAVQTGSLSTPLPQALQLLWDFQIDQKRLNCLLLTPQNLLQWLKDFSH | soluble
MLERQQDSFRFICRTCPFYYQVEGKMERKVFGLQKKQEADILGGDKQWELADQTDTLCPRCSHGKAYFFQMQTRSADEPMSTFYRCVHCGHQWKEN | soluble
MDMYSMKISEGVERIDGVTANSYLLTLDGKNILIDTGTAGGGKKIIDYFNKNGTKPDYVIVTHHHADHVGGLKEISERFNPEIYVPDLEMKIIRGEEDPPKPRSFFGRMITGMLKFEPVKDVKPVSKASIPGIEEMATPGHTIGSTSYIVEDLHILFSGDAAVESGGELKINKSFSYEINSAERSLEIIKGMKGYLVLPGHGDKVQLLEHHHHHH | soluble
SSQFWYSEETASRLAEELLQQAGEHGRIACLSAPSVYQKLKQLESVRSDGVSAVLLEFDRRFAAYGDEFVFYDYNNPLCLPEDLLPQSFDIVIADPPYLSEECLSKVTLTVKHLTKGKILLCTGAIMEEHAGKLLDLKMCSFLPRHNHNLANEFRCYVNYESRLLS | soluble
MPMVVAKRNARERTRVHTVNQAFLVLKQHLPSLRQFTKRVSKLRILNAAITYIDTLLKLIQSSEAVPQSVISATLGPIVPTPVRAVHKISKPDTVISQPIRPLAPVLPRHETYLPAPIAATCAPDHSLVDYRSTFASSLAPPVPMQMPSVFSPQPTFPYMKSLLDYPTYFYQPSTAPPPPPAPTAPQSHLIVNNQLVPMPSYQCF | not soluble
MVVFNGLLKIKICEAVSLKPTAWSLRDAVGPRPQTFLLDPYIALNVDDSRIGQTATKQKTNSPAWHDEFVTDVCNGRKIELAVFHDAPIGYDDFVANCTIQFEELLQNGSRHFEDWIDLEPEGKVYVIIDLSGSSG | soluble
MSLSKNPTSGFRLTHVGLRVTDIDRSVTFYTSVFGMKELGRMGLDTTTVVFLGYPDAADPQTQLFAREGVLELKSQRGMAESNDYPDFRFVKLAIGVPDMATAMEHIRSHNVKILKEAGVAQGSEVVSTFLGCDMPDKGFDRPLWEAVVAVPFVEDPDGYLIEIIPYEGHHHHHH | soluble
MSLHEYELNQDLLAENKRLAEKNREALRESGTVAVNIMGAIGSGKTLLIERTIERIGNEVKIGAMLGDVVSKADYERVRRFGIKAEAISTGKECHLDAHMIYHRLKKFSDCDLLLIENVGNLICPVDFDLGENYRVVMVSVTEGDDVVEKHPEIFRVADLIVINKVALAEAVGADVEKMKADAKLINPRAKIIEMDLKTGKGFEEWIDFLRGILNVHSDSGQNEGGSHHHHHH | soluble
MASSLNEDPEGSRITYVKGDLFACPKTDSLAHCISEDCRMGAGIAVLFKKKFGGVQELLNQQKKSGEVAVLKRDGRYIYYLDWMWSLEHHHHHH | not soluble
LWGIFVEQADGHYRVRLRSKIHPINEIAKEHDGGGHPLASGANSYSLEENEIIY | soluble
MQATIYDLDGNTDGEVDLPDVFETPVRSDLIGKAVRAAQANRKQDYGSDEYAGLRTPAESFGSGRGQAHVPKLDGRARRVPQAVKGRSAHPPKTEKDRSLDLNDKERQLAVRSALAATADADLVADRGHEFDRDEVPVVVSDDFEDLVKTQEVVSLLEALDVHADIDRADETKIKAGQGSARGRKYRRPASILFVTSDEPSTAARNLAGADVATASEVNTEDLAPGGAPGRLTVFTESALAEVAER | soluble
FDGIFHTVKLLEPIQQSNADPAASFALFQQKFPNLKRVANSTLNTFDVYNLLSGWKSSLTAYLNQVLALQQRIKAADQIFPNQKETLPKDENPNIFEVLGAYGGKGFFPTLGSNGLHLPPQLFQFFRDFQLSSFTIKDFEVALVSEPDIVQHDKVRYAFQVQ | not soluble
MKKQVVEVLVEGGKATPGPPLGPAIGPLGLNVKQVVDKINEATKEFAGMQVPVKIIVDPVTKQFEIEVGVPPTSQLIKKELGLEKGSGEPKHNIVGNLTMEQVIKIAKMKRSQMLALTLKAAAKEVIGTALSMGVTVEGKDPRIVQREIDEGVYDELFEKAEKE | soluble
MSEKPQQEEQEKPQSRRNSFAVIEFTPEVLDRCLKQVEFYFSEFNFPYDRFLRTTAEKNDGWVPISTIATFNRMKKYRPVDKVIEALRSSEILEVSADGENVKRRVPLDLTAARNARIEQNQRTLAVMNFPHEDVEASQIPELQENLEAFFKKLGEINQVRLRRDHRNKKFNGTVLVEFKTIPECEAFLKSYSNDDESNEILSYEGKKLSVLTKKQFDLQREASKSKNFSGRSRSFNGHKKKNLPKFPKNKKKNGKEESKEDSSAIADDDEEHKE | soluble
MLYKSSLAVAISALIAGQVSAAGFQVAEHSASGLGRAFSGEAAVADNASVLARNPAAMMLFETAQFSGALSIVDPEVNVDDLSNNQSMKDVAPLQIVPAAYYIRPINDQWAWGLAMFTTYGVATDYPNEIYAGDLAGDTSLISVNLNPNIAYRVNPELSLGFGLDLVAAKAKLTRHKGGLAPFMGGGNPSDNLIGMTGETLALGWNIGALYELDEQNRIGFGYRSRVKLNFDDGEFSSYDSGIATSAVVPGQLKIELPAIWELSGFHQLNEQWAVHYSYQQTDWSSFEELTATSSQCKNGTCFQKIEQYQDNGRWSVGATYTLNTTWTLRAGLAFDEQAGKATLSIPDSDRFWYSAGLTYTLTPQLTMDAGFALVQSRKGSFTEKNQIGQNLQFESEAVAYISALQFNYRFH | not soluble
MGALESLRGNADLAYILSMEPCGHCLIINNVNFCRESGLRTRTGSNIDCEKLRRRFSSLHFMVEVKGDLTAKKMVLALLELARQDHGALDCCVVVILSHGCQASHLQFPGAVYGTDGCPVSVEKIVNIFNGTSCPSLGGKPKLFFIQACGGEQKDHGFEVASTSPEDESPGSNPEPDATPFQEGLRTFDQLDAISSLPTPSDIFVSYSTFPGFVSWRDPKSGSWYVETLDDIFEQWAHSEDLQSLLLRVANAVSVKGIYKQMPGCFNFLRKKLFFKTSHHHHHH | soluble
MGSDKIHHHHHHMVSMIKTAQGYSSELTRDQSELTQFWSQVQQESLAIEPGITLAYGFIRHEDNRRAIVISNGRVESYLKYQELIYDCYQQGFSVYALDHRGQGLSSRLTTNPHQGHVEHFSDYVDDFKVFIERVVKPERHKELFLVGHSMGGAIATHYIHQDPTTFNAAVLSAPMYGIILPLPTVVIKQLATKMINTQPVIGSHLVATNYIIGGRDYQAISFKLNQLTHSQVRYQHYRDLYQQQPQCQLGSPTNQWLAEAIDAAKASIDMARGSPIPLLILQAGKDKIVCNQAQNKALAGLCQRIIIEGAFHEVFIETDKLRDKALKALFDFINQHSEII | not soluble
MLGACVEKPSTLERVKEDGVLRVVTRNSPATYFQDRNGETGFEYELVKRFADDLGVELKIETADNLDDLFDQLGQPKGPVLAAAGLVSSEQRKQQVRFSHPYLEVTPQVIYRNGRSRPTTAQDLVGKHIMVLKGSTHAEQLAELKLKYPGIEYEESDAVEVVDLLRMVDEGQIDLTLVDSNELAMNQVYFPNVRVAFDLGDARSQSWAVAAGDDNSLLNEINSFLDKVEKNGTLQRLKDRYYGHVDVLGYVGAYTFAQHLQQRLPKYEKHFKASAKQEKLDWRLLAAVGYQESMWQAEVTSKTGVRGLMMLTQNTAQAMGVSNRLDPKQSISGGAKYLAYIKEQLDDKIEEPDRTWFALAAYNVGTGHLDDARKLAEKEGLNPNKWLDVKKMLPRLSQKQWYSKTRYGYARGGEPVHFVANIRRYYDILTWVTQPQLEGDQVAEGNLHVPGVNKTKPPEENPPLLEHHHHHH | soluble
MGSDKIHHHHHHMKTLCTHSLPKEKMPYLLRSGEGERYLFGRQVATVMANGRSTGDLFEIVLLSGGKGDAFPLHVHKDTHEGILVLDGKLELTLDGERYLLISGDYANIPAGTPHSYRMQSHRTRLVSYTMKGNVAHLYSVIGNPYDHAEHPPYASEEVSNERFAEAAAVADIVFLDEAKPACSAKLAELTELPDGAVPYVLESGEGDRLLTGDQLHRIVAAQKNTDGQFIVVSSEGPKGDRIVDHYHEYHTETFYCLEGQMTMWTDGQEIQLNPGDFLHVPANTVHSYRLDSHYTKMVGVLVPGLFEPFFRTLGDPYEGHIFPCEPQALRFDRILQNIEALDLKVMKP | not soluble
SLDRLYAKAMKSKYTKLLLENFLLSPYEMTDPAIMAGLQKNVYPKYDELKTLRGLEGVKKHLSYVREKQEPYSKGNIAKYLKKAIEQYLPTVKRQDID | soluble
MSLSSNRGVVYIGPGKVEVQDIADPKLEAPDRRKIAHGVILKVVSTNICGSDQHMVRGRTTAEPGLILGHEITGEVIEKGADVEMLEIGDIVSVPFNVACGRCRCCREGDTGVCLTVNPSRAGGAYGYVDMGGWIGGQARYVMVPYADFNLLKFPDRDRAMAKIRDLTMLSDILPTGFHGAWKAGVGVGSVVYVAGAGPVGLAAAASARILGAAVVMVGDFNKERLEHARKVGFEPVDLSKGDDLPEMIAQITGTPEVDAAIDAVGFEARGHSGGEQPAIVLNQMMQITRAAGQIGIPGLYVTEDPGAVDDAARHGSLSMRFGLGWAKAQSFHTGQTPVLKYNRQLMQAILHDRLPIADIVNATVIPLDQAVQGYESFDRGVAKKFVLDPHGMLAAEGHHHHHH | not soluble
MGEETIAAIATGAGEGGIGIVRISGADALQVAERIFRPRRGRPLGCRRSHTVTYGWVVTPGGDRIDEALALVMRGPHSYTGEDVVELQCHGGQLAVRRVLEQALQAGARLAEPGEFTRRAFLNGRLDLSQAEAVVDLIRAKTDRAMAAAVAHLGGSLRQAVGRIRERLMEMMAHLEADIDFPELELEVQTREEVAAGCGWCLGEVERLLGGARTGRILREGLRAVLAGRPNVGKSSLLNRLVRENRAIVTPIPGTTRDVIAEWVELGGVPVQLFDTAGLRPTDDPVERIGVARTHEALAQAHLVLVVVDAAAGLGPEDREWISQLPQGAARVGVANKIDLNPAFELSALREALGGAPVVGVSAETGEGLDALEAEVARVAGAFDASEELLVNTRQAEAIRRARNHLRDAQATLESGLGDELVAIDLRAAWMALGEVTGETAGEELLDQIFSRFCIGK | soluble
